Measured values taken from article doi:10.1101/2024.12.12.628104 (bioRxiv, 2024).

Molecular target: the molecule itself
Assay: […]; 50 uM, […], pH 6.9; […]

B1: Francisella tularensis dihydrolipoyl dehydrogenase (IPD) (enzyme)
chain: MSDIKTQVVVLGSGPGGYSAAFRAADLGLEVVLVERYAEIGGVCLNVGCIPSKAMLHIAKVINEARHLESLGIIEMGGLKINRENLLKYKDGVIGKLTGGLKGMAQMRKVKIVQGYGKFTSDKELAVEAADGKVTKIAFDNCIIAAGSSVIKLPFVPEDDRIIDSTGALEMKEIPETMLVVGGGIIGLEMAQVYSELGTKITVVEFADQLMNGVDKDLVKAYQKVNSRYDVRLKTAVTAMEAKEDGIYVTMEGDHPAKDERFDRVLMAIGRKPNGKLIDAEKAGVKVDERGFIPVDKQLRTNVPHIFAIGDIVGQPMLAHKAVPEGRTAAEVISGLNHSFDPLVIPSVAYTDPEVAWVGETETSAKAKGIKYEKGVFPWAASGRSLSIDRSEGMTKILFDENHKIIGASIVGTHAGELISEAAIAIEMGCDAEDIALTVHPHPTLSESLMMATEVYEGTATDLPPQKKKK
notes: also called dihydroprolyl dehydrogenase; Francisella IPD
- stoichiometry N: 2
